From PMC7337384 come the findings set out here.

For the experiment, the target named is RaTG13 S-protein receptor-binding domain fused to the Fc domain of human IgG1 (bat coronavirus RaTG13). The experiment can be described thus: SPR. Background: Surface plasmon resonance follows binding to a sensor surface in real time, without labels.

Usually Kd stands for the free concentration of one partner at which half of the binding sites on the other are occupied at equilibrium, for simple one-to-one binding. Lower therefore signals higher affinity. With “soluble monomeric human ACE2-NN (enzymatically inactive human ACE2 lacking its active-site histidines) (domain or fragment)”, the dissociation constant Kd was above 35 µM.
